Results taken from doi:10.1101/273615 (bioRxiv, 2018).
Values belong to the binder of their own block, whether it stands above or below them.

How the values were obtained:
Experiment in all cases: ITC
[1] = molecular target: Mus musculus core RBPJ, residues 53-474 (Mus musculus, UniProt P31266 53-474)
RBPJ (53-474) F261A = RBPJ (53-474) F261A (Mus musculus, UniProt P31266 53-474, F261A)
RBPJ (53-474) A284V = RBPJ (53-474) A284V (Mus musculus, UniProt P31266 53-474, A284V)
RBPJ (53-474) L388A = RBPJ (53-474) L388A (Mus musculus, UniProt P31266 53-474, L388A)
RBPJ (53-474) L388A, sequence (P31266 53-474 L388A): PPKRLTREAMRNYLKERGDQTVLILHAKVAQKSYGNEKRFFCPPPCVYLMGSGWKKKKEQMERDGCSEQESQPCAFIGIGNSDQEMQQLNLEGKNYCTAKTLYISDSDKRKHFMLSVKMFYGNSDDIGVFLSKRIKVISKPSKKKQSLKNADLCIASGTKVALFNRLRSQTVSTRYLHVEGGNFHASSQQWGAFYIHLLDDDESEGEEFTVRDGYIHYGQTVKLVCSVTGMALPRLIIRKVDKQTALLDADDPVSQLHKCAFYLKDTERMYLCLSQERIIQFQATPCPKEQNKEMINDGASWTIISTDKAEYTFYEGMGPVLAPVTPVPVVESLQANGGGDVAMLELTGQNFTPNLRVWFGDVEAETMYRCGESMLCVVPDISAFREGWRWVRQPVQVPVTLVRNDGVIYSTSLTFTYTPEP

Mus musculus core RBPJ, residues 53-474, sequence (P31266 53-474): as the sequence (P31266 53-474 L388A) above, with A336L counted along it
RBPJ (53-474) F261A, sequence (P31266 53-474 F261A): as the sequence (P31266 53-474 L388A) above, with F209A, A336L counted along it
RBPJ (53-474) A284V, sequence (P31266 53-474 A284V): as the sequence (P31266 53-474 L388A) above, with A232V, A336L counted along it

- fold decrease in binding against native SHARP [1]: > 350 fold
B2: SMT3-SHARP (2776-2833) L2791A (domain or fragment, UniProt Q96T58 2802-2859, looked up)
chain: SGAGLRVNTSEGVVLASYSGQKTEGPQRISAKISQIPPASAMDIEFQQSVSKSQVKPD

- fold reduction in binding against native SHARP [1]: > 20 fold
B3: SMT3-SHARP (2776-2833) Y2793A (domain or fragment, UniProt Q96T58 2802-2859, looked up)
chain: SGAGLRVNTSEGVVLLSASGQKTEGPQRISAKISQIPPASAMDIEFQQSVSKSQVKPD

The next lines start with the binder.

B1: SMT3-SHARP, residues 2776-2833 (RBPJ-interacting region) (domain or fragment, UniProt Q96T58 2802-2859, looked up)
chain: SGAGLRVNTSEGVVLLSYSGQKTEGPQRISAKISQIPPASAMDIEFQQSVSKSQVKPD
- Kd [1]: ~5 nM
- stoichiometry N [1]: 1
- fold reduction in binding against native RBPJ (RBPJ (53-474) F261A): ~45 fold
- fold reduction in binding against native RBPJ (RBPJ (53-474) A284V): ~50 fold
- fold reduction in binding against native RBPJ (RBPJ (53-474) L388A): ~70 fold

B4: SMT3-SHARP (2776-2833) V2789A (domain or fragment, UniProt Q96T58 2802-2859, looked up)
chain: SGAGLRVNTSEGVALLSYSGQKTEGPQRISAKISQIPPASAMDIEFQQSVSKSQVKPD
- fold reduction in binding against native SHARP [1]: > 10 fold

B5: SMT3-SHARP (2776-2833) I2811A (domain or fragment, UniProt Q96T58 2802-2859, looked up)
chain: SGAGLRVNTSEGVVLLSYSGQKTEGPQRISAKISQAPPASAMDIEFQQSVSKSQVKPD
- fold reduction in binding against native SHARP [1]: > 60 fold

B6: SMT3-SHARP (2776-2833) K2807A (domain or fragment, UniProt Q96T58 2802-2859, looked up)
chain: SGAGLRVNTSEGVVLLSYSGQKTEGPQRISAAISQIPPASAMDIEFQQSVSKSQVKPD
- fold reduction in binding against native SHARP [1]: ~6 fold
